Assay results from the PETadex activity labels (doi:10.1128/spectrum.00976-21).

Legend:
pNP-C2 = experiment: Proxy for plastic degradation [Specific activity]
PET; PCL = experiment: Proxy for plastic degradation [Titratable acid release]; conditions: pH 7.5; 14 h

B1: unnamed (protein)
chain: MVRVFGLTLLALLVPALAAPVPEDLEARQSGCADVMVVYARGTDQDSPIGDPASVGVLFRDNIKSLLGSRTFSFQGVNYAANVIGFLQGGDPAGSRQMTTDLTNVANSCPNAKIVSAGYSQGGQLVHNSAAQLTAAVRNRINAVVIFGDPKSDQAVTGIPSSNVKIICHDGDNICEGGFIVTSQHTNYQQDAPAAAQFVLSKV
- Proxy for plastic degradation (pNP-C2; pH 2): 0 U/mg
- Proxy for plastic degradation (pNP-C2; pH 3): 0 U/mg
- Proxy for plastic degradation (pNP-C2; pH 4): 0 U/mg
- Proxy for plastic degradation (pNP-C2; pH 5): 14500 U/mg
- Proxy for plastic degradation (pNP-C2; pH 6): 27500 U/mg
- Proxy for plastic degradation (pNP-C2; pH 7): 29500 U/mg
- Proxy for plastic degradation (pNP-C2; pH 7.5, 0 h): 17500 U/mg
- Proxy for plastic degradation (pNP-C2; pH 7.5, 20 °C): 0 U/mg
- Proxy for plastic degradation (pNP-C2; pH 7.5, 30 °C): 22500 U/mg
- Proxy for plastic degradation (pNP-C2; pH 7.5, 40 °C): 32500 U/mg
- Proxy for plastic degradation (pNP-C2; pH 7.5, 50 °C): 20000 U/mg
- Proxy for plastic degradation (pNP-C2; pH 7.5, 60 °C): 300 U/mg
- Proxy for plastic degradation (pNP-C2; pH 7.5, 70 °C): 0 U/mg
- Proxy for plastic degradation (pNP-C2; pH 7.5, 80 °C): 0 U/mg
- Proxy for plastic degradation (pNP-C2; pH 7.5, 1 h): 19400 U/mg
- Proxy for plastic degradation (pNP-C2; pH 7.5, 2 h): 22500 U/mg
- Proxy for plastic degradation (pNP-C2; pH 7.5, 3 h): 35000 U/mg
- Proxy for plastic degradation (pNP-C2; pH 7.5, 4 h): 25000 U/mg
- Proxy for plastic degradation (pNP-C2; pH 7.5, 5 h): 18500 U/mg
- Proxy for plastic degradation (pNP-C2; pH 8): 32200 U/mg
- Proxy for plastic degradation (pNP-C2; pH 9): 10000 U/mg
- Proxy for plastic degradation (PET; PCL): 10.9 mL
